Data from paper PMC6771040, “Bispecific GRPR-Antagonistic Anti-PSMA/GRPR Heterodimer for PET and SPECT Diagnostic Imaging of Prostate Cancer” (Cancers, 2019).

Legend:
[1] = tested on: PC3-PIP xenografts (PSMA and GRPR expressing); assay: in vivo; set-up: species or system BALB/c nu/nu mice; conditions: female, BALB/c nu/nu, mouse, iv, 50 pmol/mouse
Method: (§1) All animal experiments were planned and performed in accordance with the Swedish national legislation on the protection of laboratory animals and the study plans were approved by the Ethics Committee for Animal Research in Uppsala. Euthanasia was performed by the intraperitoneal injection of a ketamine-xylazine (Ketalar-Rompun) solution (200 mg/kg ketamine/Ketalar and 20 mg/kg xylazine/Rompun), and all efforts were made to minimize suffering. Prior to implantation, female outbred BALB/c nu/nu mice (n = 30) were quarantined for 1 week. The average animal weight at the time of the experiment was 16 ± 1 g. Xenografts expressing both PSMA and GRPR were established by the subcutaneous injection of ~0.8 × 10^7 PC3-PIP cells/mouse. Tumors were grown for 7 days and the average tumor weight at the time of the experiment was 0.3 ± 0.1 g. Before the experiments, animals were randomized into groups of four. Blood, salivary glands, lung, liver, spleen, pancreas, stomach, small intestines, kidneys, muscle, bone, and tumor samples were collected for radioactivity measurements. The gastrointestinal tract with content and the rest of the carcass were also collected. The activity of samples was measured together with the injection standard.
(§2) To evaluate the biodistribution over time, three groups of mice were intravenously co-injected through the tail vein with ^111In-6 and ^68Ga-6 (300 kBq for ^68Ga-6 and 40 kBq for ^111In-6) and sacrificed 1, 3, and 24 h pi. The total injected peptide mass was adjusted to 50 pmol/mouse.

in vivo = assay: in vivo; set-up: species or system BALB/c nu/nu mice; conditions: female, BALB/c nu/nu, mouse, iv, 50 pmol/mouse, total radioactivity, Tumor-to-organ ratio
Method: as §1, §2

PSMA [2] = conditions: 1 h pi; cited from earlier work
PSMA [3] = molecular target: T1, PSMA (Homo sapiens, UniProt Q04609); assay: Competitive binding assay (IC50) towards PSMA on PC3-PIP cells
T1 construct: expressed in transfected cells; host or cells: PC3-PIP cells (PC-3 derived, kept under puromycin selection; obtained from Dr. Warren Heston, Cleveland Clinic)
T1 sequence (Q04609 whole entry): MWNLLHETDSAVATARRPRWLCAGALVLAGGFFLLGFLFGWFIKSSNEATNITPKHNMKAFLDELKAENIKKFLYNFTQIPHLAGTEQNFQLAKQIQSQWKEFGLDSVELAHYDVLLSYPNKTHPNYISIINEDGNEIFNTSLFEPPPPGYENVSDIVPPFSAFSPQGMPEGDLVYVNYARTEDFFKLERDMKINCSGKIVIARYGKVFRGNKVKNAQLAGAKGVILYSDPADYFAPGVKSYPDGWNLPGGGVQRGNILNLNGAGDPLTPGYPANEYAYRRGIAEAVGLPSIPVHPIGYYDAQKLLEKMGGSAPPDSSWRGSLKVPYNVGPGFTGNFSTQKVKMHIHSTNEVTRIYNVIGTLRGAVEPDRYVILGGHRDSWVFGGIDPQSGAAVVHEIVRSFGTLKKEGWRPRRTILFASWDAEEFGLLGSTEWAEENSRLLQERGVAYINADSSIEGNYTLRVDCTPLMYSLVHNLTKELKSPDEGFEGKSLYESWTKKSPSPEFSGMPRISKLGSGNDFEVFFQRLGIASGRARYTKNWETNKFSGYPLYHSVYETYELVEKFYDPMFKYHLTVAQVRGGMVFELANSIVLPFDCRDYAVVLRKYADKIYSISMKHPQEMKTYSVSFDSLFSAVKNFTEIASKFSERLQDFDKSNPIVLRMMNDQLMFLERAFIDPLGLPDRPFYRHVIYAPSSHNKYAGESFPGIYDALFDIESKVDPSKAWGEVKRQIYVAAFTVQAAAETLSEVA
Method: (§3) The half-maximal inhibitory concentration (IC50) values towards PSMA and GRPR were determined for ^natIn-6 using PC3-PIP cells. ^111In-PSMA-617 was used as a displacement radioligand for PSMA and ^111In-DOTA-PEG2-RM26 was used for GRPR, respectively. Due to the presence of both targets on PC3-PIP cells, in each experiment, the secondary target was blocked with either 1 mM solution of NOTA-PEG6-RM26 or 2 mM PSMA-11. For comparison, the IC50 values were determined for the corresponding monomers towards PSMA and GRPR under the same experimental conditions. Briefly, cell monolayers were incubated with the radioligand (1 nM) at 4 °C for 5 h in the presence of increasing concentrations of ^natIn-loaded conjugates (0–540 nM for GRPR-targeting analogs, and 0–7500 nM for PSMA-targeting, respectively). Following incubation, cells were collected and the cell-associated radioactivity was measured in an automated gamma-counter. The IC50 values were calculated by nonlinear regression using GraphPad Prism software (GraphPad Software Inc., San Diego, CA, USA).

GRPR = GRPR (Homo sapiens, UniProt P30550)
Sequence of GRPR (P30550 whole entry): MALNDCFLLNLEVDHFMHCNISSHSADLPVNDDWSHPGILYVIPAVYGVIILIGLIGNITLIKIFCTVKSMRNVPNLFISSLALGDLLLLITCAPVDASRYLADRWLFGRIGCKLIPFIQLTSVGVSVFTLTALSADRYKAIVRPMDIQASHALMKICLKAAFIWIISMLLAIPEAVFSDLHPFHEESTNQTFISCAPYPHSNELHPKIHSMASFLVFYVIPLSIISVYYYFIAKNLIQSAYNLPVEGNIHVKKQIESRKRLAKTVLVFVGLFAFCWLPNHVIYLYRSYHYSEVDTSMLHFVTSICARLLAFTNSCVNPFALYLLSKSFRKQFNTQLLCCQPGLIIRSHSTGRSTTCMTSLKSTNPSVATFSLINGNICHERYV
Method: as §3

In the case of `CC(C)C[C@H](NC(=O)C[C@H](O)[C@H](CC(C)C)NC(=O)[C@H](Cc1c[nH]cn1)NC(=O)CNC(=O)[C@@H](NC(=O)[C@H](C)NC(=O)[C@H](Cc1c[nH]c2ccccc12)NC(=O)[C@H](CCC(N)=O)NC(=O)[C@@H](Cc1ccccc1)NC(=O)CCOCCOCCOCCOCCOCCOCCNC(=O)[C@H](CCCCNC(=O)CN1CCN(CC(=O)O)CCN(CC(=O)O)CC1)NC(=O)CCCCCCCNC(=O)CC[C@H](NC(=O)N[C@@H](CCC(=O)O)C(=O)O)C(=O)O)C(C)C)C(N)=O` [68Ga-6, metal not drawn], the “Tumor-to-organ ratio, Blood” value ([1]; 1 h) is reported as 24±3, the “Tumor-to-organ ratio, Bone” value ([1]; 1 h) is reported as 30±11 and the “Tumor-to-organ ratio, Kidneys” value ([1]; 1 h) is reported as 1.2±0.1. The “Tumor-to-organ ratio, Liver” value ([1]; 1 h) was 5.9±0.9, the “Tumor-to-organ ratio, Lung” value ([1]; 1 h) was 15±3 and the “Tumor-to-organ ratio, Muscle” value ([1]; 1 h) was 78±28. The “Tumor-to-organ ratio, Pancreas” value ([1]; 1 h) was 4.4±0.6, the “Tumor-to-organ ratio, Salivary glands” value ([1]; 1 h) was 43±8 and the “Tumor-to-organ ratio, Small intestine” value ([1]; 1 h) was 11±3. The “Tumor-to-organ ratio, Spleen” value ([1]; 1 h) was 16±4, the “Tumor-to-organ ratio, Stomach” value ([1]; 1 h) was 10±4 and the “Tumor-to-organ ratio, Blood” value ([1]; 3 h) was 44±6. For the same molecule, the “Tumor-to-organ ratio, Bone” value ([1]; 3 h) was 67±21, the “Tumor-to-organ ratio, Kidneys” value ([1]; 3 h) was 0.9±0.2 and the “Tumor-to-organ ratio, Liver” value ([1]; 3 h) was 4±1. For the same molecule, the “Tumor-to-organ ratio, Lung” value ([1]; 3 h) was 28±17, the “Tumor-to-organ ratio, Muscle” value ([1]; 3 h) was 128±57 and the “Tumor-to-organ ratio, Pancreas” value ([1]; 3 h) was 18±6. The “Tumor-to-organ ratio, Salivary glands” value ([1]; 3 h) was 43±8, the “Tumor-to-organ ratio, Small intestine” value ([1]; 3 h) was 33±27 and the “Tumor-to-organ ratio, Spleen” value ([1]; 3 h) was 11±1. For the same molecule, the “Tumor-to-organ ratio, Stomach” value ([1]; 3 h) was 45±39.
With `CC(C)C[C@H](NC(=O)C[C@H](O)[C@H](CC(C)C)NC(=O)[C@H](Cc1c[nH]cn1)NC(=O)CNC(=O)[C@@H](NC(=O)[C@H](C)NC(=O)[C@H](Cc1c[nH]c2ccccc12)NC(=O)[C@H](CCC(N)=O)NC(=O)[C@@H](Cc1ccccc1)NC(=O)CCOCCOCCOCCOCCOCCOCCNC(=O)[C@H](CCCCNC(=O)CN1CCN(CC(=O)O)CCN(CC(=O)O)CC1)NC(=O)CCCCCCCNC(=O)CC[C@H](NC(=O)N[C@@H](CCC(=O)O)C(=O)O)C(=O)O)C(C)C)C(N)=O` [111In-6, metal not drawn] the tissue to tissue ratio at 1 h (in vivo; Blood) was 30 ± 4, the tissue to tissue ratio at 24 h (in vivo; Blood) was 192 ± 66 and the tissue to tissue ratio at 3 h (in vivo; Bone) was 52 ± 22. It also gave a tissue to tissue ratio at 24 h (in vivo; Bone) of 19 ± 15, a tissue to tissue ratio at 1 h (in vivo; Kidneys) of 1.2 ± 0.2 and a tissue to tissue ratio at 3 h (in vivo; Kidneys) of 1.4 ± 0.2. For the same molecule, the tissue to tissue ratio at 24 h (in vivo; Kidneys) was 0.6 ± 0.1, the tissue to tissue ratio at 24 h (in vivo; Liver) was 4.8 ± 0.8 and the tissue to tissue ratio at 24 h (in vivo; Lung) was 34 ± 11. For the same molecule, the tissue to tissue ratio at 1 h (in vivo; Muscle) was 101 ± 25, the tissue to tissue ratio at 3 h (in vivo; Muscle) was 210 ± 90 and the tissue to tissue ratio at 24 h (in vivo; Muscle) was 72 ± 59. It also gave a tissue to tissue ratio at 1 h (in vivo; Pancreas) of 3.5 ± 0.8, a tissue to tissue ratio at 3 h (in vivo; Pancreas) of 21 ± 1 and a tissue to tissue ratio at 24 h (in vivo; Pancreas) of 16 ± 2. For the same molecule, the tissue to tissue ratio at 1 h (in vivo; Salivary glands) was 72 ± 13, the tissue to tissue ratio at 24 h (in vivo; Salivary glands) was 26 ± 4 and the tissue to tissue ratio at 1 h (in vivo; Small intestine) was 12 ± 4. It also gave a tissue to tissue ratio at 3 h (in vivo; Small intestine) of 42 ± 9, a tissue to tissue ratio at 24 h (in vivo; Small intestine) of 27 ± 6 and a tissue to tissue ratio at 24 h (in vivo; Spleen) of 30 ± 16. It also gave a tissue to tissue ratio at 1 h (in vivo; Stomach) of 10 ± 3, a tissue to tissue ratio at 3 h (in vivo; Stomach) of 29 ± 12 and a tissue to tissue ratio at 24 h (in vivo; Stomach) of 61 ± 52. The “Tumor-to-organ ratio, Bone” value ([1]; 1 h) was 75±50, the “Tumor-to-organ ratio, Liver” value ([1]; 1 h) was 22±4 and the “Tumor-to-organ ratio, Lung” value ([1]; 1 h) was 32±3. The “Tumor-to-organ ratio, Spleen” value ([1]; 1 h) was 44±6, the “Tumor-to-organ ratio, Blood” value ([1]; 3 h) was 115±13 and the “Tumor-to-organ ratio, Liver” value ([1]; 3 h) was 20±2. For the same molecule, the “Tumor-to-organ ratio, Lung” value ([1]; 3 h) was 64±30, the “Tumor-to-organ ratio, Salivary glands” value ([1]; 3 h) was 93±10 and the “Tumor-to-organ ratio, Spleen” value ([1]; 3 h) was 59±16.
For `O=C([O-])CN(CCN(CC(=O)[O-])Cc1cc(CCC(=O)NCCCCCC(=O)NCCCC[C@H](NC(=O)N[C@@H](CCC(=O)O)C(=O)O)C(=O)O)ccc1[O-])Cc1cc(CCC(=O)O)ccc1[O-].[68Ga+3].[OH3+]` [^68Ga-PSMA-11], the “activity uptake in the kidneys relative to tumors” value (PSMA [2]) is listed as 20 fold.
For `O=C([O-])CN1CCN(CC(=O)[O-])CCN(CC(=O)NC[C@H]2CC[C@H](C(=O)N[C@@H](Cc3ccc4ccccc4c3)C(=O)NCCCC[C@H](NC(=O)N[C@@H](CCC(=O)O)C(=O)O)C(=O)O)CC2)CCN(CC(=O)[O-])CC1.[68Ga+3]` [^68Ga-PSMA-617], the “activity uptake in the kidneys relative to tumors” value (PSMA [2]) is given as 8 fold.
For `CC(C)C[C@H](NC(=O)C[C@H](O)[C@H](CC(C)C)NC(=O)[C@H](Cc1c[nH]cn1)NC(=O)CNC(=O)[C@@H](NC(=O)[C@H](C)NC(=O)[C@H](Cc1c[nH]c2ccccc12)NC(=O)[C@H](CCC(N)=O)NC(=O)[C@@H](Cc1ccccc1)NC(=O)CCOCCOCCOCCOCCOCCOCCNC(=O)[C@H](CCCCNC(=O)CN1CCN(CC(=O)O)CCN(CC(=O)O)CC1)NC(=O)CCCCCCCNC(=O)CC[C@H](NC(=O)N[C@@H](CCC(=O)O)C(=O)O)C(=O)O)C(C)C)C(N)=O` [compound 6, Glu-Urea-Glu-Aoc-Lys(NOTA)-(PEG)6-RM26], the “fold change of IC50 for PSMA, heterodimer vs monomer” value (PSMA [3]; dimerization effect) was 5 fold.
In the case of `CC(C)C[C@H](NC(=O)C[C@H](O)[C@H](CC(C)C)NC(=O)[C@H](Cc1c[nH]cn1)NC(=O)CNC(=O)[C@@H](NC(=O)[C@H](C)NC(=O)[C@H](Cc1c[nH]c2ccccc12)NC(=O)[C@H](CCC(N)=O)NC(=O)[C@@H](Cc1ccccc1)NC(=O)CCOCCOCCOCCOCCOCCOCCNC(=O)[C@H](CCCCNC(=O)CN1CCN(CC(=O)O)CCN(CC(=O)O)CC1)NC(=O)CCCCCCCNC(=O)CC[C@H](NC(=O)N[C@@H](CCC(=O)O)C(=O)O)C(=O)O)C(C)C)C(N)=O` [natIn-6, metal not drawn], the IC50 (PSMA [3]; read-out: IC50 towards PSMA, PC3-PIP cells, 4 °C, 5 h, radioligand 111In-PSMA-617, GRPR blocked, natIn-loaded conjugates) is reported as 824 ± 230 nM, the “fold change of IC50 for GRPR, heterodimer vs monomer” value (GRPR; dimerization effect) is reported as 10 fold and the IC50 (GRPR; read-out: IC50 towards GRPR, PC3-PIP cells, 4 °C, 5 h, PSMA blocked, natIn-loaded conjugates) is reported as 4 ± 1 nM.
